The target in test [1] is His-tagged BCMA protein (Homo sapiens (Human)) (UniProt Q02223). Kind of test: biolayer interferometry (Octet RED96), His-tagged BCMA loaded on Anti-Penta-HIS (HIS1K) sensors, antibody as analyte at 138.9 nM.
In test [2] the target is human BCMA expressed on the cell surface (human) (UniProt Q02223). Kind of test: flow cytometry on K562-BCMA cells, goat anti-human IgG secondary. Background: Flow cytometry measures light scatter and fluorescence of single cells or particles in a stream.
Test [3] shares this target. Kind of test: flow cytometry on K562-BCMA cells, secondary antibody only.
In test [4] the target is His-tagged BCMA protein (Homo sapiens (Human)) (UniProt Q02223). As to the kind of experiment: Octet RED96, His-tagged BCMA on anti-His biosensor tips, antibody as analyte. (BLI is a label-free optical method that tracks binding on a fibre tip over time.)
Test [5] deals with T1, His-tagged BCMA protein (Homo sapiens (Human), UniProt Q02223 1-54).
T1 construct: not shown: His tag
T1 sequence: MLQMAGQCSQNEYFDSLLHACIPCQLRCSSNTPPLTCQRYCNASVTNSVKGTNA
The description is as above. As for the experimental part: (§1) Four full length antibodies were analyzed using the OctetRED96 technology for assessment of binding affinity by measurement of the equilibrium dissociation constant (KD). Within the group of four were the two candidate anti-BCMA antibodies (BCMA-3L/3H and BCMA-3L/20H), the positive anti-BCMA control described in Example 1, and the anti-CD19 negative control described in Example 1. In the experiment, His-tagged BCMA protein was loaded onto anti-His antibody coated biosensor tips and supplied antibodies were utilized as analytes to measure KD.

Test [6] concerns the target T1, His-tagged BCMA protein. Kind of test: biolayer interferometry (Octet RED96), His-tagged BCMA loaded on Anti-Penta-HIS (HIS1K) sensors, antibody as analyte at 138.9 nM. As for the experimental part: as §1

We go through five molecules from patent publication US20260028412A1 (PRECISION BIOSCIENCES, published 2026).

“full-length human IgG4 antibody expressing the anti-CD19 targeting moiety FMC63” came in with a Response in test [1] of 0.0032. The % positive cells in test [2] stood at 1.2%.

In the case of goat anti-human IgG secondary antibody, the % positive cells in test [3] was found to be 0.18%.

As usually defined, the Kd is the free concentration of one partner at which half of the binding sites on the other are occupied at equilibrium, for simple one-to-one binding. For orientation: koff means a measure of how fast the partners let go of each other. Lower therefore signals slow dissociation. As usually defined, the kon is the second-order rate constant of association. Lower therefore signals slow association. In the case of “positive control IgG4 anti-BCMA antibody (comprising the VH and VL regions of the C11D5.3 antibody described in WO 2010/104949)”, the Kd in test [4] is < 0.001 nM. For the same molecule, in test [1], the Response was determined as 2.31, the off-rate constant (koff) is < 1e-07 s⁻¹ and the kon was found to be 236000 M⁻¹ s⁻¹. The molecule also gave a % positive cells in test [2] of 10.1%.

B1: BCMA-3L/3H full-length IgG4 antibody (antibody, V domains shown)
VH: QIQLVQSGPELKKPGETVKISCKASGYTFTHYSINWVKRAPGKGLKWMGWINTESGEPTYAYDFKGRFAFSLETSASTAYLQINNLKYEDTATYFCALDYESAMDYWGQGTSVTVSS
VL: DIVLTQSPPSLAMSLGKRATISCRASESVTIPGQHLINWYQQKPGQPPKLLIQRASNVESGVPARFSGSGSRTDFTLTIDPVEEDDVAVYYCLQTRGIPRTFGGGTKLEIKR
notes: also called BCMA-3L/3H full length antibody
For the molecule B1, the equilibrium dissociation constant (Kd) in test [5] worked out at 1.38 nM. In test [6], this molecule gave an off-rate (koff) of 0.000333 s⁻¹ and an association rate constant (kon) of 242000 M⁻¹ s⁻¹.

B2: BCMA-3L/20H full-length IgG4 antibody (antibody, V domains shown)
VH: QIQLVQSGPELKKPGETVKISCKASGYTFTHYSINWVKRAPGKGLKWMGWINTETRESTYAYDFKGRFAFSLETSASTAYLQINNLKYEDTATYFCALDYKQAMDYWGQGTSVTVSS
VL: DIVLTQSPPSLAMSLGKRATISCRASESVTIPGQHLINWYQQKPGQPPKLLIQRASNVESGVPARFSGSGSRTDFTLTIDPVEEDDVAVYYCLQTRGIPRTFGGGTKLEIKR
notes: also called BCMA-3L/20H full length antibody; BCMA-3L/20H antibody clone
As for B2, in test [5], binding was put at a Kd of 2.14 nM. In test [6], this molecule showed a koff of 0.000458 s⁻¹ and a kon of 214000 M⁻¹ s⁻¹.
